In patent US20250197882A1, “USE OF JAZ PROTEIN AND ITS DERIVATIVES IN AGRICULTURAL PEST PREVENTION AND CONTROL” (priority 2022, published 2025):

Legend:
[1] = tested on: Sf9 ovarian cell line of Spodoptera frugiperda; assay type: cell-based
Text: Using insect cell lines toxicity testing and mechanism of action research of insecticides, as a new detection method, has the advantages of good target homogeneity, easy control of experimental conditions, and low screening costs compared to traditional bioassay methods. It is suitable for toxicological research of insecticidally active substances. In recent years, scholars at home and abroad have conducted extensive research on the activity of plant natural active ingredients on insect cells, and have achieved many research results of the action mechanism of plant natural active ingredients on insect cells, showing a good correlation between experimental results and in vivo toxicity testing and field experiments.
Fluorescence staining experiment: toxic effect of GhJAZ protein on Sf9 cell line (CL-0205, Procell) was detected using a Calcein/PI Cell Viability and Cytotoxicity Detection kit (Catalogue No.: C2015L, Beyotime, China). The Calcein/PI Cell Activity and Cytotoxicity Detection Kit is a very convenient kit for detecting the viability of animal cells based on Calcein AM (Calcein AM) and PI (Propidium Iodide) dual fluorescence staining. The specific steps are as follows: Adherent cells were blown and transferred to a 15 mL EP tube, centrifuged at 860-870 rpm for 5 minutes. […] After 30 minutes of culture, fluorescence microscopy images were taken. […]

[2] = tested on: SfAPN4; experiment: Yeast two-hybrid (Y2H) interaction with SfAPN4; assay type: binding, Spodoptera frugiperda; details: Y2HGold yeast, quadruple dropout medium, FIG. 4B
Text: DNA fragments shown in PGADT7::GhJAZ8 (SEQ ID No. 3), PGADT7::GhJAZ8^LGK (SEQ ID No. 25), PGADT7::GhJAZ13 (SEQ ID No. 8), PGADT7::GhJAZ14 (SEQ ID No. 10), PGADT7::GhJAZ24 (SEQ ID No. 12), PGADT7::GhJAZ27 (SEQ ID No. 14) and PGADT7::GhJAZ28 (SEQ ID No. 16) were inserted between the BamH1 and EcoR1 of a PGADT7 plasmid (Unibio Biotech, VT1639), respectively, to obtain pGADT7+GhJAZ8, pGADT7+GhJAZ8^LGK, pGADT7+GhJAZ13, pGADT7+GhJAZ14, pGADT7+GhJAZ24, pGADT7+GhJAZ27 and pGADT7+GhJAZ28.
The DNA fragment shown in PGBKT7: SfAPN4 (SEQ ID NO: 22) was inserted between BamH1 and EcoR1 of a pGBKT7 plasmid (Unibio Biotech, catalog number: VT1638), to obtain a vector plasmid, named pGBKT7+SfAPN4.
The mixture was centrifuged at 5000 rpm for 30 seconds to discard the supernatant, and the pellet was resuspended in ddH2O, coated on a double dropout medium (SD/-Leu/-Trp) and cultured at 28° C. for 2 days. After occurrence of the clonal plaques, the clones were selected and placed a quadruple dropout medium (SD Ade/-His/-Leu/-Trp, with Aba and X-α-gal added) and the interaction was observed after 4 days of culture at 28° C.

[3] = tested on: fall armyworm (Spodoptera frugiperda); experiment: Feed film-covering bioassay, larval growth inhibition, fall armyworm; assay type: in vivo; details: protein on artificial feed, after 7 days, FIGS. 6C, 6E
Method: (§1) Treatment group: add the prepared insect feed (Henan Jiyuan Baiyun Industrial Co., Ltd., product name: Grassland armyworm artificial feed) to a 24 well plate, with a volume of 200 microliters per well; use a film covering method to add diluted GhJAZ8 protein solutions of different concentrations (diluted with PBS) to the surface of the feed, and shake in the incubator until the protein is immersed in the culture medium. Take grassland armyworm and cotton bollworm larvae that have not been fed within the first 12 hours of incubation as experimental subjects, and place them in a culture box, with each concentration of protein applied to 100 larvae. Set 16 replicates for each protein concentration and 3 parallel measurement groups for each dose. Control group: different from the experimental group, PBS solution was added to the surface of the feed using a film covering method, and the rest were the same. After 7 days, age and weight will be recorded for statistical analysis. [formula]

[4] = tested on: cotton bollworm (Helicoverpa armigera); experiment: Feed film-covering bioassay, larval growth inhibition, cotton bollworm; assay type: in vivo; details: protein on artificial feed, after 7 days, FIGS. 6D, 6F
Method: as §1

SfAPN4, sequence (as listed by the source): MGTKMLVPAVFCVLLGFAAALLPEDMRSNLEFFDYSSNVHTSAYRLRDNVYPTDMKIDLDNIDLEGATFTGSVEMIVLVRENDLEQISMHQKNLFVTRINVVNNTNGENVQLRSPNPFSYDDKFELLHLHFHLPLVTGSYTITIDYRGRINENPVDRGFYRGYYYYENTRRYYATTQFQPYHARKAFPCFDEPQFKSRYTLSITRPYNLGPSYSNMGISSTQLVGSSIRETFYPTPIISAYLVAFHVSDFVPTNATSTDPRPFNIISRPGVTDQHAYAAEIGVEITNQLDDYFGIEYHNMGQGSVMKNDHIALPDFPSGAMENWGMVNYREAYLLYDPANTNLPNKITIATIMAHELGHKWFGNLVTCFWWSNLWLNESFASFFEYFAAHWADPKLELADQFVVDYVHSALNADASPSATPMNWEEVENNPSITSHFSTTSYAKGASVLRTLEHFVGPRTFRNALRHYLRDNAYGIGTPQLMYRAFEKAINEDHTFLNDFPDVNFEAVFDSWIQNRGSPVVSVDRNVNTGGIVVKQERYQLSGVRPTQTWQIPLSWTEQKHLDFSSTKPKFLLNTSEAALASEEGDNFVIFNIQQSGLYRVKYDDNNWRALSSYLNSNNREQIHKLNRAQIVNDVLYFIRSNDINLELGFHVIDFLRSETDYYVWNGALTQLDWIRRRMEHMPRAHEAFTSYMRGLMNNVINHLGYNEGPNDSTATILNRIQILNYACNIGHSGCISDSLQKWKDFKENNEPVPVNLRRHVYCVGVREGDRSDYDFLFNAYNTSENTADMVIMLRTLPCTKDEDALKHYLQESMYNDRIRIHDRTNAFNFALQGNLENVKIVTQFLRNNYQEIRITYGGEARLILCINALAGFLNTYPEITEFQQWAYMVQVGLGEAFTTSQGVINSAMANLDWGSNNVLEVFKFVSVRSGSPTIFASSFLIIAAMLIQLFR

Row | Molecule | cytotoxicity on Sf9 cells [1] | interaction with SfAPN4 (Y2H) [2] | growth inhibition of fall armyworm larvae [3] | growth inhibition of cotton bollworm larvae [4]
1 | GhJAZ5: cotton JAZ protein, SEQ ID NO: 1, expressed in E. coli from pET-30a-GhJAZ5 (protein) MSSCSESTAMKPARSPEKPSFAQTCNLLSQYLKEKGSFGDLSLGMTCNVEANGTPVVPPPTMNLFPLNDKSDDVCGRNGGNPKNLTSMDLFPQQAGLASKDDSPNKLEPQTAPMTIFYGGQVIVFNDFPANKAKEIMLLASNSSSQSNNSFNPIPFTSSIARSPIESSIGVPPTSKPVHPAQRAVPGDLPIARRASLHRFLEKRKDRITAKAPYQINNSAAAPSLSGDNKSWLGLAAQSP | certain cytotoxic effects |  |  | 
2 | GhJAZ16: cotton JAZ protein, SEQ ID NO: 5, expressed from pET-30a-GhJAZ16 (protein) MERDFIGLRSKNAAITIKVEPSNAQPDDSVLLRGSGMQLSFSNKVSTVPQFLSFDGARDDKPRKATHDTLLSSGFMTIPAADSNKKPHPGLTQKQGGNHYAATTYGLQQLDGHQSRLSHEARIFPSSSQPNHTITVSMNTPLLQPHLASPGQNIIGHTINPQPFTGVPIMAAPVSVVPPSSPIIGTTDLRNAAKSSRAPAQLTIFYAGSVCVYDDVSPDKAQAIMLLAGNVSSTTQSKTAPVTQPQTHIPRPCTLSPFSGLPNHLSVTSHVSLQPVAGSSGTNELTAATRIGALASTNNQPDPPKLVNPAVAVPQARKASLARFLEKRKERVSNTSPYNICKRSESGPLASDGISFSVTSAGSSPLQAIN | certain cytotoxic effects |  |  | 
3 | GhJAZ8^LGK: GhJAZ8 with NGR domain mutated, N43G44R45 to L43G44K45, coding sequence SEQ ID No. 25 (protein) MRRNCNLELRLLPSSYPSDSHDMMEERIESPKTQQQQLTIFYLGKVCVSDVTELQAKAILMLANRERDERMKSPTGWEPVSPTLKSQVKCPNTALSMKRSLQRFLQKRKTRIQATSPYH |  | loses interaction | weakened | weakened
